From patent publication US20160194644A1 (COMMISSARIAT A L ENERGIE ATOMIQUE ET AUX ENERGIES …, published 2016) come the findings set out here.

The assay has as its target T1, Flag-RNF185 (wild type, full length human RNF185 with N-terminal Flag tag) (human, UniProt Q96GF1 2-192).
T1 construct: Expressed by transfection in HEK293T cells; co-immunoprecipitation from lysates; For the CFTR co-IP, cells expressing WT RNF185 were treated with MG132 for 5 hours; also called RNF185 WT; Flag-tagged RNF185
T1 sequence: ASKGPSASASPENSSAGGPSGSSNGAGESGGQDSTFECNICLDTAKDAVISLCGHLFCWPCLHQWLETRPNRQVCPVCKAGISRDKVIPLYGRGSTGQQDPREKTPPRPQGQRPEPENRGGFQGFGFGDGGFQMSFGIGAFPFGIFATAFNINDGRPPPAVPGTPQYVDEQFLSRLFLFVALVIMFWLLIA
In words: Flag co-immunoprecipitation from HEK293T cell lysates.

B1: Ubc7/UBE2G1 (enzyme, UniProt P62253 1-170, looked up)
chain: MTELQSALLLRRQLAELNKNPVEGFSAGLIDDNDLYRWEVLIIGPPDTLYEGGVFKAHLTFPKDYPLRPPKMKFITEIWHPNVDKNGDVCISILHEPGEDKYGYEKPEERWLPIHTVETIMISVISMLADPNGDSPANVDAAKEWREDRNGEFKRKVARCVRKSQETAFE
notes: the construct is not described
For the molecule B1, the binding result is on record as “no binding”.
